Measurements published in patent US20240376180A1 (DEUTSCHES ZENTRUM FUR NEURODEGENERATIVE ERKRANKUNGEN E V …, published 2024).
Numbering of substitutions follows the chain as printed.

B1: HL CV07-222 (antibody, V domains shown)
VH: QVQLVQSGAEVKKPGASVKVSCKASGYTFTDYYVHWVRQAPGQGLEWMGWINPISGGTNYAQKFQGRVTMTRDTSISTAYMELSRLRSDDTAVYYCARGPYYYDSSGSLGAFDIWGQGTMVTVSS
VL: QSALTQPASVSGSPGQSITISCTGTSSDVGSYNLVSWYQQHPGKAPKLMIYEGSKRPSGVSNRFSGSKSGNTASLTISGLQAEDEAHYYCCSYAGGSTSYVFGTGTKVTVLG
B2: HK CV38-139 (antibody, V domains shown)
VH: EVQLVESGGGLVQPGGSLRLSCAASGFTVSSNYMSWVRQAPGKGLEWVSVFYSGGSTFYADSVKGRFTISRDNSKNTLYLQMNSLRAEDTAVYYCARGHYDLFDYWGQGTLVTVSS
VL: DIQLTQSPSFLSASVGDRVTITCRASQGISSYLAWYQQKPGKAPKLLIYAASTLQSGVPSRFSGSGSGTEFTLTISSLQPEDFATYYCQQLNSYPPGTFGPGTKVDIKR
B3: HL CV07-250 (antibody, V domains shown)
VH: QVQLVQSEAEVKEPGASVEVSCKASGYNFTNFAISWVRQAPGQGLEWMGWISGYNGDTNSAQKFLGRVTMTTDTSTTTAYMELRSLRSDDTAVYYCAGSDNYGFPYNGMDVWGQGTTVTVSS
VL: QSALTQPPSASGSPGQSVTISCTGTSSDLGAYHFVTWYQHYPGKAPKVMIYGVRKRPSGVPDRFSGSKSGNTASLTVSGLQDEDEADYYCSSYAGNNDFVFGGGTKLTVLS
B4: HL CV07-315 (antibody, V domains shown)
VH: EVQLVESGGGLVQPGRSLRLSCAASGFTFDDYAMHWVRQAPGKGLEWVSGISWNSGSIGYADSVKGRFTISRDNAKNSLYLQMNSLRAEDTALYYCAKDFLWDLHPPRYYGMDVWGQGTTVTVSS
VL: QSVLTRPPSVSAAPGQKVTISCSGSSSNIGNNYVSWYQQLPGTAPKLLIYENNKRPSGIPDRFSGSKSGTSATLGITGLQTGDEADYYCGTWDSSLNGVFGGGTKLTVLG
B5: HK CV38-113 (antibody, V domains shown)
VH: EVQLVESGGGLVQPGGSLRLSCAASGFTVSSNYMSWVRQAPGKGLEWVSVIYSGGSTYYADSVKGRFTISRHNSKNTLYLQMNSLRAEDTAVYFCARGGRLADAAGDYWGQGTLVTVSS
VL: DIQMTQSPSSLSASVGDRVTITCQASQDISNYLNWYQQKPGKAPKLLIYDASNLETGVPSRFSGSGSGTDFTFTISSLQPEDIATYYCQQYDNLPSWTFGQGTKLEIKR
B6: HL CV07-270 (antibody, V domains shown)
VH: QVQLVESGGGLVKPGGSLRLSCAASGFTFSDYYMTWIRQAPGKGLEWVSYISSSGSTIYYADSVKGRFTISRDNAKNSLYLQMNSLRAEDTAVYYCARARGSSGWYRIGTRWGNWFDPWGQGTLVTVSS
VL: QSALTQPASVSGSPGQSITISCTGTSSDVGGYNYVSWYQQHPGKAPKLMIYEVSNRPSGVSNRFSGSKSGNTASLTISGLQAEDEADYYCSSYTSSSNVVFGGGTMLTVLG
B7: HL CV07-283 (antibody, V domains shown)
VH: QVQLVQSGAEVKKPGASAKVSCKASGYTFTGYYIHWVRQAPGQGLEWMGLINPISGGTNYAQKFQDRVTMTRDTSISTAYMELSRLRSDDTAVYYCVRGPFYYDSSGPLGGMDVWGQGTTVTVSS
VL: B6 VL with S27G, N98T, V99Y, G103T, M106K, L107V
B8: HL CV07-255 (antibody, V domains shown)
VH: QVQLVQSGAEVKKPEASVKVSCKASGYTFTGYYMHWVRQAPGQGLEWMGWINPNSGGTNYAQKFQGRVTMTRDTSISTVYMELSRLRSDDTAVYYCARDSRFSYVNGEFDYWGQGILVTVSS
VL: QSALTQPASVSGSPGQSITISCTRTSSDVESYNLVSWYQQHPGKAPKLMIYEVSKRPSGISNRFSGSKSGNTASLTISGLQAEDEADYYCCSYAGHSTWVFGGGTELTVLG
B9: HL CV07-262 (antibody, V domains shown)
VH: QVQLVQSGAEVKKPGASVKVSCKASGYTFTGYYMHWVRQAPGQGLEWMGWINPNSGGTNYAQTFQGRVTMTRDTSITTTYMELSRLRSDDTAVYYCARVGWYDFGTPGDYYYYYGMDVWGQGTTVTVSS
VL: B8 VL with R24G, E30G, V53G, I60V, Y89F, H96T, W99F, G103T, E106K, L107V
B10: HK CV07-287 (antibody, V domains shown)
VH: QVQLVQSGPEVKKPGTSVKVSCKASGFTFTSSAMQWVRQARGQRLEWIGWIVVGSGNTNYAQKFQERVTITRDMSTSTAYMELSSLRSEDTAVYYCAAPYCSSTNCYDAFDIWGQGTMVTVSS
VL: not shown
B11: HK CVX1-126 (antibody, V domains shown)
VH: EVQLVESGGGLVQPGGSLRLSCAASGLTVSSNYMSWVRQAPGKGLEWVSVIYSGGSTYYADSVKGRFTISRHNSKNTLYLQMNSVRAEDTAVYYCARDLSEGGMDVWGQGTTVTVSS
VL: DIQMTQSPSSVSASVGDRVTITCRASQGISSWLAWYQQKPGKAPKLLIYAASTLQSGVPSRFSGSGSGTDFTLTISSLQPEDFATYYCQQANGFPPLFGGGTKVEIKR
B12: HK CVX2-106 (antibody, V domains shown)
VH: QVQLVQSGAEVKKPGSSVKVSCKASGGTFSSYAISWVRQAPGQGLEWMGGIIPIFGTANYAQKFQGRVTITADESTSTAYMELSSLRSEDTAVYYCATRKETTVTTSLVYGMDVWGQGTTVTVSS
VL: not shown
B13: HK CV07-209 (antibody, V domains shown)
VH: QVQLVESGGGLVKPGGSLRLSCAASGFTFSDYYMSWIRQAPGKGLEWVSYISSSVSTIYYADSVKGRFTISRDNAKNSLYLQMNSLRAEDTAVYYCARDGVIPPRFDYWGQGTLVTVSS
VL: not shown
B14: HK CV38-221 (antibody, V domains shown)
VH: EVQLVESGGGLVQPGGSLRLSCAASGITVSSNYMIWVRQAPGKGLEWVSVIYSGGSTYYADSVKGRFTISRDNSKNTLYLQMNSLRAEDTAVYYCARGFGDYYFDYWGQGTLVTVSS
VL: EIVLTQSPGTLSLSPGERATLSCRASQSVSSSYFAWYQQKPGQAPRLLIYGASSRATGIPDRFSGSGSGTDFTLTISRLEPEDFAVYYCQQLYTFGQGTKLEIKR

What follows are binders tested against SARS-CoV-2 Spike RBD-Fc (SARS-CoV-2) (assay: ELISA, RBD-Fc captured via anti-rabbit IgG, concentration-dependent binding).

Binder | EC50 [ng/mL]
B1 | 5.5
B2 | 8.9
B3 | 8.7
B4 | 7.2
B5 | 5.2
B6 | 14.2
B7 | 4
B8 | 4.8
B9 | 12.1
B10 | 5.9
B11 | 5.5
B12 | 5.6
B13 | 4.1
B14 | 6.4
